Results taken from the DeepSol protein solubility set.

Experiment: soluble on expression in E. coli; label from the status in PepcDB or PDB records

Which “soluble on expression in E. coli” value does the source give for “MSLASQSEAEVLIGVAGPMSGKLAWTGTQLRRGAEMAVANINAAGGVLGQQVRLIVADDFCDPRQALAAAEKLVADGAVFVIGHYCSGASIPASKIYAAAGVLQISPSSTNPMLTEQGHANVFRVCSRDDAQGHKAGNYLADHWGDSKIAILHDNTTYGKGLADETKKQLNMRGVTEAVYQSYTPGKDDYSVEVAALQTAHIAVLYLGGYHTEAALMVRAARDRAYPVQLISGDDTATEAFGLIAGPAAEGTLFTFVADPRRNAEAAEVVERFRAENFEPDSWTLHSYGAAEIWAQAVTKANSLDLQAVIAALREDQFDTVLGRIDFDKKGDLTVQSWVWYVWKSGEYVPVEEGHHHHHH” here?
The value was “soluble”.

Which “soluble on expression in E. coli” value does the source give for “MSLATICSLCNKKISIFKMRLKFKDGVVGQSCLSELNLCNFWAFEPGAKEYAESHTIADLKELQTSGKDFTNIQDQYIDDETKKELQKKQEKKQERQEKIEVLKEFKDDGATKFSSYYFDLKKNQILSSGSLTTSWRVIDFSEVLSYQVNRNGHLEQKHHGIARAVTGGIMAGGVGAIVGTTTGENTDYIDHLGLVINLSDGTNFEVKFLKTKTKTNSFTVKTAEGELRSLISIVQSGMNKAQEKAEQEQTKANTIKIESNADPAEEIRKFKKMADEGIISNEEFEAKKKQLLNLQEGHHHHHH” here?
Its value is “not soluble”.

For “MSLATKDPTAVERANLLNMAKLSIKGLIESALSFGRTLDSDYPPLQQFFVVMEHCLKHGLKGRKSFLSYNKTIWGPLELVEKLYPEAEEIGASVRDLPGLKTPLGRARAWLRLALMQKKMADYLRCLIIQRELLSEFYEYHALMMEEEGAVIVGLLVGLNVIDANLCVKGEDLDSQVGVIDFSMYLKNEEEIGNKERNVQIAAILDQKNYVEELNRQLNSTVSSLHSRVDSLEKSNTKLIEELAIAKNNIIKLQEENHQLRSENELILMRTRQHLEVTKVDVETELQTYKHSRQGLDEMYNDARRQLRDESQLRQDVENELSVQVGMKHEMELAMKLLEKDIHEKQDTLIGLRQQLEEVKAINIEMYQRLQGSEDGLKEKNEIIARLEEKTNKITTAMRQLEQRLQQAEKAQKEAEAEDEKYAQECLSQSDSLQRQISQKEQQLVQLETDLKIEKEWRQTLQEDLQKEKDVLSHLRHETQKVISLKKEFLNLQDENQQLKRIYQEQEQALQELGSKLCESKLKIDDIKEANKALQGLVWLKDKDATHCKLCEKEFSLSKRKHHCRNCGEIFCNACSDNELPLPSSPKPVRVCDSCHAMLIQRCSSNMPEGHHHHHH”, which “soluble on expression in E. coli” value is on record?
Its value is “not soluble”.

Which “soluble on expression in E. coli” value does the source give for “MSLATLQDLDLTGNTNLVLEHKTLDIFSHITTLKIDQKPLPTTDSTVTSTFWSHGLAEMAGQRNKLCVSALAMDSFAEGVGAVYGMFDGDRNEELPRLLQCTMADVLLEEVQQSTNDTVFMANTFLVSHRKLGMAGQKLGSSALLCYIRPDTADPASSFSLTVANVGTCQAVLCRGGKPVPLSKVFSLEQDPEEAQRVKDQKAIITEDNKVNGVTCCTRMLGCTYLYPWILPKPHISSTPLTIQDELLILGNKALWEHLSYTEAVNAVRHVQDPLAAAKKLCTLAQSYGCQDNVGAMVVYLNIGEEGCTCEMNGLTLPGPVGFASTTTIKEGHHHHHH” here?
The value was “soluble”.

Which “soluble on expression in E. coli” value does the source give for “MSLATTVKIATISPLSGSSSNLGLQIKNGAQLAVNEYKAEFAKLGMNLSLVAYDDQADPATGTAAARRVVADKNVLAVVGTLNTGVAIPASQALSTSKVAMVSPANTGTKVTDRGLKNMNRICARDDAQGPAGADFMVSTLKVKKVYVINDKTPYGEGLSGEAEKRLKAKGVQIVQSEGVAAEERDFTAIITKIQTLKPDAIYFGGLYGQIGPFAQQLRAKGVQVPLIGGDGMDSDELAKLAGAQGANNIYFTTVAPPLDSVPAAKTMAGNFKKAFGSDVQGYGIMGYDSAKVVLQGILDAAKKNGNKAPSRAQVETAIRSGTFGNLLTGTVQFDKNGDRKAGKMYVIAIKNAQRSTAGQVNVLREGHHHHHH” here?
The value was “soluble”.

For “MSLATWSAERFGFGAALGDHDRARRAAVGEAVERYCGNAVPDALEIACYDDLARAGRPALDPATLALYSDRQYRARGFPFRPFTRQTPVAWVPGRDLYAGGPVLVPASMAYLNYFRGAHADEVATHAMLYAGIATGENREHAERFALEELFERDANTIWWASGAAGWAVADAAELLDRYDIAHGEGTGRTIRLFQVPSQFPVPVLAAFLEEPGRGLIAYGTACRADPREAATKALVEAFAMLELTAELADGDSAHWRAVARGEIPPHTYLPYRADRRYADDIRPDFRDLVDLPAVAQLYLDPRMQGRPLDRLRDDTRTTRLADIPRADGDANGGTAHRRYLDMLATQGLSAVSVDVTTPDVRAAGLTVVRVIVPGLYGNPPAAFPFLGGERLYDVPAQLGLAAGKITEDALYPYPIPHEGHHHHHH”, which “soluble on expression in E. coli” value is on record?
The value was “not soluble”.

Which “soluble on expression in E. coli” value does the source give for “MSLCDRSEVGDVSLGMFTLKDIKINNLTDPVVTGVTCHVASIEADLSLADPSDSSISCRQTGEITPEMIAQIDKSSSGEVVFQKSKSIFFKSMKIRRIFDAKNQTLMYLSYSTKETSGSFKHSLSTVPLWGTQAYNAFPETQNKEGHHHHHH” here?
Its value is “soluble”.

Which “soluble on expression in E. coli” value does the source give for “MSLCRVLRVKHSSYYDWLSRDISEQQIHRNHCELLVKAAHSETHERYGVERLHAHLSEQGHNISPYMVRSIKEEYSIKCRRHKRFKVTTDSNHNKLVYPNVLDQEFDASRPNQAWASDITYIWTLEGWLYLAGVKDLYTKELVGYAINKRMTADLVCKALNMAIKNKQPSKGLVVHSDRGSQYCSHAYHKIIKQHQFTGSMSGKGNCFDNAPIESFWGILKNELVYHQDYKTRFAAIRDIIGYIELYYNQTRIQKGLGYKSPRQVWFDYYRQAAEGHHHHHH” here?
Its value is “soluble”.

With “MSLDDHTRDPTVKAPDGNPSGWRTDGQWEHETLRRAVVHGVRLYNSGEFHESHDCFEDEWYNYGRGNTESKFLHGMVQVAAGAYKHFDFEDDDGMRSLFRTSLQYFRGVPNDYYGVDLLDVRTTVTNALSDPSALHGWQIRLDGEYPTCRPEDIEFAESLEHEGHHHHHH” as the sequence, how does the “soluble on expression in E. coli” value read?
The value was “soluble”.

For “MSLDDLWQTLPDPAELVTVGDLRGMIHTHSTWSDGGASIREMAEATLTLGHEFLGTADHSRAAYYANGLTIERLREQLKEIRELQRAGLPIVAGSEVDILDDGSLDFPDDVLGELDYVVVSVHSNFTLDAARQTERLIRAVSHPLVTVLGHATGRLLLRRPGYALDLDAVLGACEANGTVVEINANAARLDLDWREALRWRERLKFAINTDAHVPGGLRDARYGVMQARKAGLTPAHVVNSLGRAEFLDFVARQRAARGAPGPADREGHHHHHH”, which “soluble on expression in E. coli” value is on record?
The value was “not soluble”.

Which “soluble on expression in E. coli” value does the source give for “MSLDEKKLKALAVELAKGLKTEADLNSFSRMLAKLTVETVLNAELADHPGYEKNAPKTGSNTRNGYSSKTVLCDDGEIELNTPRDRENTFEPQLLKKHQTRITQMDSQILSLYAKGMTTREIVATFKEMYDANVSPSLISKVTDAVKEQVTERQNRQPDALYPIVYMDCIVVKVRQNGSVINKAVFLALGINTEGQKELLGMWLAENEGEKFWLSVLTELKTRGVQDILIACVDGLKGFPDAINSVFPQPHIQLCIIHMVRNSLKYVAWKGYKVATSGLRLRPKRRHEGHHHHHH” here?
Its value is “not soluble”.

Which “soluble on expression in E. coli” value does the source give for “MSLDENLIEEIKLADDISKGYNAALNYLSYQLRTRKEVEDKLRSLDIHEDYISEIINKLIDLDLINDKNYAESYVRTMMNTSDKGPKVIKLNLSKKGIDDNIAEDALILYTDKLQVEKGVTLAEKLANRYSHDSYRNKQNKIKQSLLTKGFSYDIIDTIIQELDLIFDDDTEREILLEKANKLWSRYDNLDIKKRKFKIQQALFKQGFSFSNITSALDEIEDTNEGHHHHHH” here?
Its value is “soluble”.

Which “soluble on expression in E. coli” value does the source give for “MSLDGKPTIIIKYGKIDEEAMKSQRYNFDDLMVQLRENSIDRVADVSFAILEPSGKLTIVKKENSGEHRQLEMPLIIDGFIQTENLSRISKDRKWLLESLQKHGYTNPSDISFCSFTDGEIYIDEKDGHRTKGIITITTDPNSSSVDKLAAALEHHHHHH” here?
Its value is “soluble”.

Which “soluble on expression in E. coli” value does the source give for “MSLDIAYFTKTLEGLPLEKAAEITAGLGFDCADLLIRDGHAVSPDRPEGIANAVKFFAAAGVRTSMATIDSARPDDAASRLLSCCGEAGIGQIRLGFWRYDPSRRWRVQVDEARRDLDGFERLADRFGIKLTIQLHGGTLHSSGALAVQLLAGRDPIRLGAYPDPANQIIREGSEDWRLTLDILDPWFCCMGVKNSGWFPGAYGSHGQRAWHSDWYGLDEGMVPWNEIVPHLVATGFTGVLSMHSQYRVSREQALDKVRADLAHFRRLVAAAKEGHHHHHH” here?
Its value is “not soluble”.

Which “soluble on expression in E. coli” value does the source give for “MSLDKKPVTTRKKVKVTGTETYINQSTGEIKEMQVIDIEERDFNFHKVWLEHIIHSMDLIGNQKTRLAFWLINNLNRDNVLIMTQRKIAEKTGISLETVRQTMKALMESGFLIKINSGAYCVNPDAVFKGGKTDRLNVLIQYRKSEQENTKTSEPTSEKDEPSLFNNEQLKAMEGHHHHHH” here?
Its value is “soluble”.

Which “soluble on expression in E. coli” value does the source give for “MSLDSDPDTLVVHTQLGTTAPGSPTYLAAVDRFREENPGVKIKNLVNGDDLAQVYETSRLARKEADVVMVNLYDKTLAWTDVGATVDVKPYLDDWGLRGRVLPAALADWTDDEGRVRAFPYFATNWPVAYNRALLDRAGVDAIPTTGDQLIAAARKLRAKGIAPVTVGGNDWTGQKLLAQIIQTFLSQDEARHVYSTGDFGVRGARLGIEYFAHLRDAGVFADKAQGLTSDSMTTQFNTEEAAVQSAMSSALAKVPEKVAGHTEVGGWPLADGAAHDGPTVIRAYTLIGFWISPNGVRKIEQVEKFLRFMYRPDVVARFVTESGRDMALRTDAVSTGFPLVGAAQRLGSEVSQVLLPDVYVPPAAAQPLITATSTSFTRGTSPARVRAALESAYRSVEGHHHHHH” here?
Its value is “soluble”.

Which “soluble on expression in E. coli” value does the source give for “MSLDSLNLNKHISGQFNAELESIRTQVMTMGGMVEQQLSDAITAMHNQDSELAKRVVEGDHQVNMMEVAIDEACVRIIAKRQPTASDLRLVMAIIKTIAELERIGDVADKICRTALEKFSQQHQPLLVSLESLGRHTVQMLHDVLDAFARMDLDEAVRIYREDKKVDQEYEGIVRQLMTYMMEDSRTIPSVLTALFCARSIERIGDRCQNICEYIFYFVKGQDFRHVGGDELDKLLAGKDPKEGHHHHHH” here?
Its value is “soluble”.

With “MSLDSQVLEHVLPSHFAKYDKGGDEFYDLISAFHKSVRGSAPDAALYWYCRILAGGGDPLYVARRLLAIATEDIGNADPRAMQVALNAWDIFQRVGPSEGERAIAQATLYLASAPKSNAVYTAFNQAKHDAAHLPSYPVPEHLRNAPTQIMKELGFGAQYRYAHDEVGAFAAGENYFPEILKTKHYYQPTDRGLEKQIKDKLDYLASQNNQSENKRYDEGHHHHHH” as the sequence, how does the “soluble on expression in E. coli” value read?
The value was “soluble”.

For “MSLEAILPVPEEKQVDWQKMETYAFVHFGLNTFNDREWGYGDSEPKTFNPTKLDCEQWVKTFVESGMKGVILTAKHHDGFCLWPTQLTEYCIRNTPYKDGKGDIVGELAAACKKYGIKFAVYLSPWDRHQANYGTPEYVDYFHKQLTELMTNYGEVFEVWFDGANGGDGWYGGAKDSRTIDRKTYYNYPRIYEILDKLQPQAIVFSDGGPGCRWVGNENGFAGATNWSFLRAGEVYPGYPKYRELQYGHADGNQWVPAECDVSIRPGWFYHPEEDDRVKTVEQLTDLYYRSVGHNATLLLNFPVDRDGLIHPIDSANAVNFHKNVQKQLAHNLLAGIRPKASDERGGQFSAKAATDESWDTYWATNDGVTAADIEFDFPKTEKVNRMMIQEYIPLGQRVKSFIVEYDKDGKWLPVKLNEETTTVGYKRLLRFETVSTDKLRIRFTDARACLCINNIEAYYAGETADTFTVEAKELKSYPFTLVGVPEEETKKCMDKDKNTTAFVEGDALVIDLGEERTITSFHYLPDQSEYNKGLISSYELSVGTEANAVNRIVAQGEFSNIKNNPILQSVYFTPVKARYLSLKPTKMVTEGETMGFAEIGIQEGHHHHHH”, which “soluble on expression in E. coli” value is on record?
Its value is “soluble”.
